T1: human FcγRIIa type R (human, UniProt P12318 36-217)
T1 construct: also called FcgRIIaR; FcγRIIa(R)
T1 chain: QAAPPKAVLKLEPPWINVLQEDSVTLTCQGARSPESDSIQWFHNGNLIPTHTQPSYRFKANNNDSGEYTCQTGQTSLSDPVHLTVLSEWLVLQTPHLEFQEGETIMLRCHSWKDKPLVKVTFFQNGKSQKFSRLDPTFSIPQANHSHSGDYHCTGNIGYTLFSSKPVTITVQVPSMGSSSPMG

T2: human FcγRIIa type H (human, UniProt P12318 36-217)
T2 construct: also called FcgRIIaH; FcγRIIa(H)
T2 sequence: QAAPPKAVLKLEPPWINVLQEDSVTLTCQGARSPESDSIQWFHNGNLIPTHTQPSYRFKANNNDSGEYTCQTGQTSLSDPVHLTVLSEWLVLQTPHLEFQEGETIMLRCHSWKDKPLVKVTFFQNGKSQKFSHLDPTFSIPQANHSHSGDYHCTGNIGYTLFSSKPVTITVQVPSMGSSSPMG

T3: human FcγRIIb (human, UniProt P31994 43-217, limits assumed)
T3 construct: also called FcgRIIb; FcγIIB
T3 sequence: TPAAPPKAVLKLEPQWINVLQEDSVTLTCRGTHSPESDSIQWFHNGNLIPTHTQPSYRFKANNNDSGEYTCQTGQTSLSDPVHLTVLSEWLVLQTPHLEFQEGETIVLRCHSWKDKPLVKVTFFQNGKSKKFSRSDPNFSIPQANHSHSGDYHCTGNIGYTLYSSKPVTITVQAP

T4: human FcγRIIa(R) (human, UniProt P12318 36-217)
T4 construct: also called FcgRIIaR; FcγRIIa type R
T4 chain: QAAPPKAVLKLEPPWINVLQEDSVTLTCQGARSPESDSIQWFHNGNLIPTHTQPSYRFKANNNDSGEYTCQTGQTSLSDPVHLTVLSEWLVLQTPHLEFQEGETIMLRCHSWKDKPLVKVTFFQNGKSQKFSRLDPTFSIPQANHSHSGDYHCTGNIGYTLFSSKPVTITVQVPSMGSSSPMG

T5: human FcγRIIa(H) (human, UniProt P12318 36-217)
T5 construct: also called FcgRIIaH; FcγRIIa type H
T5 sequence: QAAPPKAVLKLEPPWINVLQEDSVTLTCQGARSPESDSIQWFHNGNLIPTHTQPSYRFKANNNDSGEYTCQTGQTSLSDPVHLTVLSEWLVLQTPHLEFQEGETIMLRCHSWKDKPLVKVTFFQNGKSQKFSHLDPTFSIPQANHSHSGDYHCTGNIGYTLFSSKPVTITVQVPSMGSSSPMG

T6: human FcγRIIb (human, UniProt P31994 43-217, limits assumed)
T6 construct: also called FcgRIIb; FcγIIB
T6 sequence: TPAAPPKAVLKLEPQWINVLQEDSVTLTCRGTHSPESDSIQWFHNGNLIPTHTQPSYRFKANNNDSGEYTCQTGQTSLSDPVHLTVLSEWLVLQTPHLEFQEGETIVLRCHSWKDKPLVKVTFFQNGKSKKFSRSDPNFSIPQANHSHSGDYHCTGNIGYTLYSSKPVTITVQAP

B1: IL6R-BP130/IL6R-L (antibody, human IgG1, name in EU numbering)
heavy: QVQLQESGPGLVKPSETLSLTCAVSGHSISHDHAWSWVRQPPGEGLEWIGFISYSGITNYNPSLQGRVTISRDNSKNTLYLQMNSLRAEDTAVYYCARSLARTTAMDYWGEGTLVTVSSASTKGPSVFPLAPSSKSTSGGTAALGCLVKDYFPEPVTVSWNSGALTSGVHTFPAVLQSSGLYSLSSVVTVPSSSLGTQTYICNVNHKPSNTKVDKKVEPKSCDKTHTCPPCPAPDLLGGDSVFLFPPKPKDTLMISRTPEVTCVVVDVSHEDPEVKFNWYVDGVEVHNAKTKPREEQYNSTYRVVSVLTVLHQDWLNGKEYKCKMSNKALPKPIEKTISKAKGQPREPQVYTLPPSRDELTKNQVSLTCLVKGFYPSDIAVEWESNGQPENNYKTTPPVLDSDGSFFLYSKLTVDKSRWQQGNVFSCSVMHEALHNHYTQESLSLSP
light: DIQMTQSPSSLSASVGDRVTITCRASQDISSYLNWYQQKPGKAPKLLIYYTSRLHSGVPSRFSGSGSGTDFTFTISSLQPEDIATYYCQQGNTLPYTFGQGTKVEIK
notes: copies: 2 + 2
B2: IL6R-BP146/IL6R-L (antibody, human IgG1, name in EU numbering)
heavy: QVQLQESGPGLVKPSETLSLTCAVSGHSISHDHAWSWVRQPPGEGLEWIGFISYSGITNYNPSLQGRVTISRDNSKNTLYLQMNSLRAEDTAVYYCARSLARTTAMDYWGEGTLVTVSSASTKGPSVFPLAPSSKSTSGGTAALGCLVKDYFPEPVTVSWNSGALTSGVHTFPAVLQSSGLYSLSSVVTVPSSSLGTQTYICNVNHKPSNTKVDKKVEPKSCDKTHTCPPCPAPEYLGDDSVFLFPPKPKDTLMISRTPEVTCVVVDVSHEDPEVKFNWYVDGVEVHNAKTKPREEQYNSTYRVVSVLTVLHQDWLNGKEYKCKVSNAALPAPIEKTISKAKGQPREPQVYTLPPSRDELTKNQVSLTCLVKGFYPSDIAVEWESNGQPENNYKTTPPVLDSDGSFFLYSKLTVDKSRWQQGNVFSCSVMHEALHNHYTQESLSLSP
light: DIQMTQSPSSLSASVGDRVTITCRASQDISSYLNWYQQKPGKAPKLLIYYTSRLHSGVPSRFSGSGSGTDFTFTISSLQPEDIATYYCQQGNTLPYTFGQGTKVEIK
notes: copies: 2 + 2
B3: GpH7-B3/GpL16-k0 variant Q295W (antibody, human IgG1)
heavy: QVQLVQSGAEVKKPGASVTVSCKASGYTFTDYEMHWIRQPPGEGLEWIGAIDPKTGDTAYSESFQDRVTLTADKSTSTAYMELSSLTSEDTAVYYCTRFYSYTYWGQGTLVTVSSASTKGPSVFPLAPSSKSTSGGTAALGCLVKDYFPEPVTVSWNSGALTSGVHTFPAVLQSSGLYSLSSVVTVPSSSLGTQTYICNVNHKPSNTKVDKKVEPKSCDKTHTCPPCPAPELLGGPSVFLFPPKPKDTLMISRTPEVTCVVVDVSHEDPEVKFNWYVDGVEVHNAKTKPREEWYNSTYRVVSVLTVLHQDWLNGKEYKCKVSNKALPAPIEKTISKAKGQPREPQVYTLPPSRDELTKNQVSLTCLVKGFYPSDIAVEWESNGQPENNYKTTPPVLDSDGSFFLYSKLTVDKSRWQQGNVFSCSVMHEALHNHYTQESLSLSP
light: DIVMTQSPLSLPVTPGEPASISCQASESLVHSNRNTYLHWYLQKPGQSPQLLIYKVSNRFSGVPDRFSGSGSGTDFTLKISRVEAEDVGVYYCSQNTHVPPTFGQGTKVEIE
notes: also called B3 variant; copies: 2 + 2
B4: GpH7-B3/GpL16-k0 variant S298K (antibody, human IgG1)
heavy: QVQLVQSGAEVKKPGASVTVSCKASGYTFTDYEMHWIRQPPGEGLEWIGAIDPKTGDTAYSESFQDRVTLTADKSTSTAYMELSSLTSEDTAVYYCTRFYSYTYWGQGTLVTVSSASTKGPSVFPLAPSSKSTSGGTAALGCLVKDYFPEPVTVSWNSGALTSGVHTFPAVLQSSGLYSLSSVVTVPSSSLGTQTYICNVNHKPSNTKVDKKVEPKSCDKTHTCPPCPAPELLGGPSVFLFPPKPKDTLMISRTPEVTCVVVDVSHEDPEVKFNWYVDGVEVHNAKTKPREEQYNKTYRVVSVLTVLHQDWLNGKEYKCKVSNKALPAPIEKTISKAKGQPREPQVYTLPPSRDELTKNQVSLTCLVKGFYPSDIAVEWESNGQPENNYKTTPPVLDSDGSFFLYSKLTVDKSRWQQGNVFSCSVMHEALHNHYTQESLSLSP
light: DIVMTQSPLSLPVTPGEPASISCQASESLVHSNRNTYLHWYLQKPGQSPQLLIYKVSNRFSGVPDRFSGSGSGTDFTLKISRVEAEDVGVYYCSQNTHVPPTFGQGTKVEIE
notes: as for B3
B5: GpH7-B3/GpL16-k0 variant S298R (antibody, human IgG1)
heavy: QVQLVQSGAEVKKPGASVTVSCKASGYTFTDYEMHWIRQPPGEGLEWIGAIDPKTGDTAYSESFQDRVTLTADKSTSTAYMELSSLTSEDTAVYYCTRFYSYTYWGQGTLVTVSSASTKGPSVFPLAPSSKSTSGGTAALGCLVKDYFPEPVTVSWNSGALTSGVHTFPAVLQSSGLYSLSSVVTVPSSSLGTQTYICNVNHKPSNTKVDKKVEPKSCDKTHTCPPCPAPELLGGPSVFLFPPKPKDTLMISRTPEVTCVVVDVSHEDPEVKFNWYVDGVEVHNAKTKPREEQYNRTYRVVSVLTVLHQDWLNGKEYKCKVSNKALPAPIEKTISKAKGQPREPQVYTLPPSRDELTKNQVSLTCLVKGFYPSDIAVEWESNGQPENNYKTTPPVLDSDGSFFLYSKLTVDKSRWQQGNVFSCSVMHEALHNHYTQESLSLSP
light: DIVMTQSPLSLPVTPGEPASISCQASESLVHSNRNTYLHWYLQKPGQSPQLLIYKVSNRFSGVPDRFSGSGSGTDFTLKISRVEAEDVGVYYCSQNTHVPPTFGQGTKVEIE
notes: as for B3
B6: GpH7-B3/GpL16-k0 variant Q295Y (antibody, human IgG1)
heavy: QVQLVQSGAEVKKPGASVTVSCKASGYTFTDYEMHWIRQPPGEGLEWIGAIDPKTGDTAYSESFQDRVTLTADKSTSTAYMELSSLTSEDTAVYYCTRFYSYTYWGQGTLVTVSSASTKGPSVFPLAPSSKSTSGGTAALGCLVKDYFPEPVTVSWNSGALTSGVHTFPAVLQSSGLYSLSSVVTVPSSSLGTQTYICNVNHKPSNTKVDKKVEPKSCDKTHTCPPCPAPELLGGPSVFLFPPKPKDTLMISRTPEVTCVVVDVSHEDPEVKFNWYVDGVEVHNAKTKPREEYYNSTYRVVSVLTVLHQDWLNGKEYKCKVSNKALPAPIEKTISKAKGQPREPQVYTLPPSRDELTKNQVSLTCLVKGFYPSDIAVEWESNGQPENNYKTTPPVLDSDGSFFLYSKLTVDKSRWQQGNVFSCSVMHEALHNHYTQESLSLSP
light: DIVMTQSPLSLPVTPGEPASISCQASESLVHSNRNTYLHWYLQKPGQSPQLLIYKVSNRFSGVPDRFSGSGSGTDFTLKISRVEAEDVGVYYCSQNTHVPPTFGQGTKVEIE
notes: as for B3
B7: GpH7-B3/GpL16-k0 variant S298P (antibody, human IgG1)
heavy: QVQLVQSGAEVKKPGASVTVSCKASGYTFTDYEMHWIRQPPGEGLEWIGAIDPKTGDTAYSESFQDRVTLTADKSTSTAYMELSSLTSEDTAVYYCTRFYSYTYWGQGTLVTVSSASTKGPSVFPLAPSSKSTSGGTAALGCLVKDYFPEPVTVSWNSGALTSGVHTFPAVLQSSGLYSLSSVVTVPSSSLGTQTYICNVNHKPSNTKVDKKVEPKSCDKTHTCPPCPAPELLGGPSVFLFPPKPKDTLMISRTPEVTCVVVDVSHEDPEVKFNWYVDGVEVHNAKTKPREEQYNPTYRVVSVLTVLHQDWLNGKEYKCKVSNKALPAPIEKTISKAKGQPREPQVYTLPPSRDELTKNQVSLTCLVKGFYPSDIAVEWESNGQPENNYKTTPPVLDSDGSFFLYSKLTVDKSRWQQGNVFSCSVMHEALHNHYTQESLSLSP
light: DIVMTQSPLSLPVTPGEPASISCQASESLVHSNRNTYLHWYLQKPGQSPQLLIYKVSNRFSGVPDRFSGSGSGTDFTLKISRVEAEDVGVYYCSQNTHVPPTFGQGTKVEIE
notes: as for B3
B8: GpH7-B3/GpL16-k0 variant S298G (antibody, human IgG1)
heavy: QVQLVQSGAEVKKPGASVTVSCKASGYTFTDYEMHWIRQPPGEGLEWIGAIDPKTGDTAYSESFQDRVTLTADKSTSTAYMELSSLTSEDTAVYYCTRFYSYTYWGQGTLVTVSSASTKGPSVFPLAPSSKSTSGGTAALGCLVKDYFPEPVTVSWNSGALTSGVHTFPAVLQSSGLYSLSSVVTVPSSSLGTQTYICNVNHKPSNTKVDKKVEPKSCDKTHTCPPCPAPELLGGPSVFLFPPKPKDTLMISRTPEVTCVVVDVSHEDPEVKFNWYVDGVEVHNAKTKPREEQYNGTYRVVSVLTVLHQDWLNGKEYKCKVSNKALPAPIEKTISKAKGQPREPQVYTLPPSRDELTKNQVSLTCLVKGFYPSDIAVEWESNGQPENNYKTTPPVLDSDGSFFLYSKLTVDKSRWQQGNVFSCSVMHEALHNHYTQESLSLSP
light: DIVMTQSPLSLPVTPGEPASISCQASESLVHSNRNTYLHWYLQKPGQSPQLLIYKVSNRFSGVPDRFSGSGSGTDFTLKISRVEAEDVGVYYCSQNTHVPPTFGQGTKVEIE
notes: as for B3
B9: GpH7-B3/GpL16-k0 variant Y296K (antibody, human IgG1)
heavy: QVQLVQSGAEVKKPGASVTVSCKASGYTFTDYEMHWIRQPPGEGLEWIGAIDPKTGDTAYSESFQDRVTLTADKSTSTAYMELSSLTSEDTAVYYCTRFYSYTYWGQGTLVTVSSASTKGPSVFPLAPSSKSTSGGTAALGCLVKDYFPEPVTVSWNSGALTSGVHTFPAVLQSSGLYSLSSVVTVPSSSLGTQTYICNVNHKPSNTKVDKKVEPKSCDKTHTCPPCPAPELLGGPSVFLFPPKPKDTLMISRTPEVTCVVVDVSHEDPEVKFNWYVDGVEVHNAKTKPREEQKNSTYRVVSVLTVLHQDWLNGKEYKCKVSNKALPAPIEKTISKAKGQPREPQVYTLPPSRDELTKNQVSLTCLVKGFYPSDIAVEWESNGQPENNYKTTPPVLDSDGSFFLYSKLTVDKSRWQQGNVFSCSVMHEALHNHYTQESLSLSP
light: DIVMTQSPLSLPVTPGEPASISCQASESLVHSNRNTYLHWYLQKPGQSPQLLIYKVSNRFSGVPDRFSGSGSGTDFTLKISRVEAEDVGVYYCSQNTHVPPTFGQGTKVEIE
notes: as for B3
B10: GpH7-B3/GpL16-k0 variant S298Y (antibody, human IgG1)
heavy: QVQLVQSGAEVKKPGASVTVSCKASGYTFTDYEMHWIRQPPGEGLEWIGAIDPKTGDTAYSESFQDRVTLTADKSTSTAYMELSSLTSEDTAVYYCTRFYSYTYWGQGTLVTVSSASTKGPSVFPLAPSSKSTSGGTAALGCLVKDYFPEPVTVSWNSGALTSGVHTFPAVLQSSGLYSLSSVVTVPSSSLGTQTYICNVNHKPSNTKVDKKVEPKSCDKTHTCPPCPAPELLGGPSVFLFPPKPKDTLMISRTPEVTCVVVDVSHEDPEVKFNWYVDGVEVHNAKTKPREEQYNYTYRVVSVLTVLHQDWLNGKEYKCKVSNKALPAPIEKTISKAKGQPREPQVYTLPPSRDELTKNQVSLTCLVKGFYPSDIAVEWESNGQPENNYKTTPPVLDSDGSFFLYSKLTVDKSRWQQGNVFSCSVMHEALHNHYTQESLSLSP
light: DIVMTQSPLSLPVTPGEPASISCQASESLVHSNRNTYLHWYLQKPGQSPQLLIYKVSNRFSGVPDRFSGSGSGTDFTLKISRVEAEDVGVYYCSQNTHVPPTFGQGTKVEIE
notes: as for B3
B11: GpH7-B3/GpL16-k0 variant Y296R (antibody, human IgG1)
heavy: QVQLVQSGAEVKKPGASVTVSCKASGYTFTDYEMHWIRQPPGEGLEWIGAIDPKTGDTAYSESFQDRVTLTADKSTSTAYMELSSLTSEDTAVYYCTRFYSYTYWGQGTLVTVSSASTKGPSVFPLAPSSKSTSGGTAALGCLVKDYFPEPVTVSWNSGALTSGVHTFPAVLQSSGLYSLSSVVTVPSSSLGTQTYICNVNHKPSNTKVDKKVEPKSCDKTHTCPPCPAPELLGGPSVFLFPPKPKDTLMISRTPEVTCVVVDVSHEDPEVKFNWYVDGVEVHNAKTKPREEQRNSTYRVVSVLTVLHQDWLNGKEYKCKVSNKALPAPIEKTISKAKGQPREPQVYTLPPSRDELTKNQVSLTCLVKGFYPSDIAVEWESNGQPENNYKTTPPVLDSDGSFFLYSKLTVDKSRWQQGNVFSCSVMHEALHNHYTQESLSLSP
light: DIVMTQSPLSLPVTPGEPASISCQASESLVHSNRNTYLHWYLQKPGQSPQLLIYKVSNRFSGVPDRFSGSGSGTDFTLKISRVEAEDVGVYYCSQNTHVPPTFGQGTKVEIE
notes: as for B3
B12: GpH7-B3/GpL16-k0 variant Y296G (antibody, human IgG1)
heavy: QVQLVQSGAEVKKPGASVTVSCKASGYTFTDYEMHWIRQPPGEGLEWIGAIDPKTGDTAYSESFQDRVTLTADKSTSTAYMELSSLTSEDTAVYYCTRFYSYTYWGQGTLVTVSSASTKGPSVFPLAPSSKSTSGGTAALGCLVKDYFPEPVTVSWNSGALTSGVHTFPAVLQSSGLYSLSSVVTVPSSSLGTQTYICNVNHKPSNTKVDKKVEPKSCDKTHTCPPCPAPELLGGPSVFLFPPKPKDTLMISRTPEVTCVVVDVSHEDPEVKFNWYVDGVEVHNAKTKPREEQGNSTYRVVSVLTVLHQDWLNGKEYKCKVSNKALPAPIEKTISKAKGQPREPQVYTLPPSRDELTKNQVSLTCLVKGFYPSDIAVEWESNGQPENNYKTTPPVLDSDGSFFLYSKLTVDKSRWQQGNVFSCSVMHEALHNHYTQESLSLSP
light: DIVMTQSPLSLPVTPGEPASISCQASESLVHSNRNTYLHWYLQKPGQSPQLLIYKVSNRFSGVPDRFSGSGSGTDFTLKISRVEAEDVGVYYCSQNTHVPPTFGQGTKVEIE
notes: as for B3

Assays:
[1] = target: T7, human FcγRIa (human, UniProt P12314 16-292, limits assumed); experiment: SPR (Biacore), FcγR over captured antibody; binding amount divided by that of IL6R-BF648/IL6R-L x 100
T7 construct: also called FcgRIa; FcγRI (CD64)
T7 sequence (P12314 16-292 limits assumed): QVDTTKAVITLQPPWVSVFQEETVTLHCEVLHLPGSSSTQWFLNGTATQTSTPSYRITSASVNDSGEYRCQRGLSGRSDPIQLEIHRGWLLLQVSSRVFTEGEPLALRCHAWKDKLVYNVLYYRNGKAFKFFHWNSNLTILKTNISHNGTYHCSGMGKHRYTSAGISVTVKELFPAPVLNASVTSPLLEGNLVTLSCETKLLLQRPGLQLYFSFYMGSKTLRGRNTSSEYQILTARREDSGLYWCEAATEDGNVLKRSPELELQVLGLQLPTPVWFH
Protocol: (§1) According to the following method, relative binding activities were calculated for the results of analyzing interactions with the respective FcγRs.

[2] = target: T1, human FcγRIIa type R; experiment: as above
Protocol: as §1

[3] = target: T2, human FcγRIIa type H; experiment: as above
Protocol: as §1

[4] = target: T3, human FcγRIIb; experiment: as above
Protocol: as §1

[5] = target: T8, human FcγRIa (human, UniProt P12314 16-292, limits assumed); experiment: SPR (Biacore), antibody captured, FcγR as analyte; amount bound / that of GpH7-B3/GpL16-k0 x 100;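 note: FcγR binding response divided by the captured antibody amount before comparison, measured at 25 °C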
T8 construct: also called FcgRIa; CD64
T8 sequence (P12314 16-292 limits assumed): as above
Protocol: (§2) Interaction between each modified antibody and Fcγ receptor prepared in the manner described above was analyzed using the BIACORE™ T100 surface plasmon resonance system (GE Healthcare), BIACORE™ T200 surface plasmon resonance system (GE Healthcare), BIACORE™ A100 surface plasmon resonance system or BIACORE™ 4000 surface plasmon resonance system. HBS-EP+(GE Healthcare) was used for the running buffer, and measurements were carried out at 25° C. The chips used were chips in which antigen peptides, Protein A (Thermo Scientific), Protein A/G (Thermo Scientific) or Protein L (ACTIGEN® protein (Alltech or BioVision) were immobilized on the Series S Sensor Chip CM5 (GE Healthcare) or Series S Sensor Chip CM4 (GE Healthcare) by amine coupling, or chips in which preliminarily biotinylated antigen peptides were allowed to interact and then immobilized on the Series S Sensor Chip SA (certified) (GE Healthcare). The target antibodies were captured on these sensor chips, Fcγ receptor diluted with the running buffer was allowed to interact, followed by measurement of the amount of bound antibody. The amounts bound were compared between antibodies. However, since the amount of Fcγ receptor bound depends on the amount of captured antibody, the values used for comparison were first corrected by dividing the amount of Fcγ receptor bound by the captured amount of each antibody. Through reaction with 10 mM glycine-HCl at pH 1.5, the sensor chips were regenerated by washing off antibody captured on the sensor chips and used repeatedly.
(§3) Binding strength was evaluated according to the following method based on the results of analyzing the interaction with each FcγR. […] That value was then further multiplied by 100, and the resulting value was used as an indicator of relative binding activity to each FcγR.

[6] = target: T4, human FcγRIIa(R); experiment: as above
Protocol: as §2, §3

[7] = target: T5, human FcγRIIa(H); experiment: as above
Protocol: as §2, §3

[8] = target: T6, human FcγRIIb; experiment: as above
Protocol: as §2, §3

[9] = target: T9, human FcγRIIIa(F) (human, UniProt P08637 17-208, limits assumed); experiment: as above
T9 construct: also called FcgRIIIaF; FcγRIIIa allotype F158
T9 sequence (P08637 other isoform, or with tags, fused parts or gaps limits assumed): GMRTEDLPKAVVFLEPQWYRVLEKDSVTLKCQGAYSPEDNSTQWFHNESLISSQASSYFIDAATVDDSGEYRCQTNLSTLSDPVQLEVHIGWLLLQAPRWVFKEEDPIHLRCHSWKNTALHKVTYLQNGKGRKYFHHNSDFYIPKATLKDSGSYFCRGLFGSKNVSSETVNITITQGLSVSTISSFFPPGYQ
Protocol: as §2, §3

Row | relative binding activity [1] | relative binding activity [2] | relative binding activity [3] | relative binding activity [4] | relative binding activity [5] | relative binding activity [6] | relative binding activity [7] | relative binding activity [8] | relative binding activity [9] | Binder
1 | 104 relative (IL6R-BF648/IL6R-L = 100) | 272 relative (IL6R-BF648/IL6R-L = 100) | 224 relative (IL6R-BF648/IL6R-L = 100) |  |  |  |  |  |  | B1
2 |  | 445 relative (IL6R-BF648/IL6R-L = 100) | 203 relative (IL6R-BF648/IL6R-L = 100) | 156 relative (IL6R-BF648/IL6R-L = 100) |  |  |  |  |  | B2
3 |  |  |  |  | 81 GpH7-B3/GpL16-k0 = 100 | 26 GpH7-B3/GpL16-k0 = 100 | 38 GpH7-B3/GpL16-k0 = 100 | 16 GpH7-B3/GpL16-k0 = 100 | 10 GpH7-B3/GpL16-k0 = 100 | B3
4 |  |  |  |  | 88 GpH7-B3/GpL16-k0 = 100 | 79 GpH7-B3/GpL16-k0 = 100 | 38 GpH7-B3/GpL16-k0 = 100 | 34 GpH7-B3/GpL16-k0 = 100 | 25 GpH7-B3/GpL16-k0 = 100 | B4
5 |  |  |  |  | 92 GpH7-B3/GpL16-k0 = 100 | 62 GpH7-B3/GpL16-k0 = 100 | 36 GpH7-B3/GpL16-k0 = 100 | 22 GpH7-B3/GpL16-k0 = 100 | 20 GpH7-B3/GpL16-k0 = 100 | B5
6 |  |  |  |  | 95 GpH7-B3/GpL16-k0 = 100 | 38 GpH7-B3/GpL16-k0 = 100 | 70 GpH7-B3/GpL16-k0 = 100 | 24 GpH7-B3/GpL16-k0 = 100 | 49 GpH7-B3/GpL16-k0 = 100 | B6
7 |  |  |  |  | 15 GpH7-B3/GpL16-k0 = 100 | 0 GpH7-B3/GpL16-k0 = 100 | 0 GpH7-B3/GpL16-k0 = 100 | -1 GpH7-B3/GpL16-k0 = 100 | 0 GpH7-B3/GpL16-k0 = 100 | B7
8 |  |  |  |  | 100 GpH7-B3/GpL16-k0 = 100 | 89 GpH7-B3/GpL16-k0 = 100 | 43 GpH7-B3/GpL16-k0 = 100 | 68 GpH7-B3/GpL16-k0 = 100 | 59 GpH7-B3/GpL16-k0 = 100 | B8
9 |  |  |  |  | 99 GpH7-B3/GpL16-k0 = 100 | 70 GpH7-B3/GpL16-k0 = 100 | 66 GpH7-B3/GpL16-k0 = 100 | 45 GpH7-B3/GpL16-k0 = 100 | 21 GpH7-B3/GpL16-k0 = 100 | B9
10 |  |  |  |  | 100 GpH7-B3/GpL16-k0 = 100 | 33 GpH7-B3/GpL16-k0 = 100 | 35 GpH7-B3/GpL16-k0 = 100 | 23 GpH7-B3/GpL16-k0 = 100 | 71 GpH7-B3/GpL16-k0 = 100 | B10
11 |  |  |  |  | 100 GpH7-B3/GpL16-k0 = 100 | 77 GpH7-B3/GpL16-k0 = 100 | 74 GpH7-B3/GpL16-k0 = 100 | 52 GpH7-B3/GpL16-k0 = 100 | 38 GpH7-B3/GpL16-k0 = 100 | B11
12 |  |  |  |  | 100 GpH7-B3/GpL16-k0 = 100 | 77 GpH7-B3/GpL16-k0 = 100 | 83 GpH7-B3/GpL16-k0 = 100 | 58 GpH7-B3/GpL16-k0 = 100 | 21 GpH7-B3/GpL16-k0 = 100 | B12
